In patent publication US20240150451A1 (Janssen / Centocor, published 2024):

T1: Tau peptide Start 3 Stop 22 (Synthetic linear peptide immobilised on a Pepscan array; the attachment to the array cannot be carried by the letters.)
T1 peptide: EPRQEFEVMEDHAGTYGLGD

T2: Tau peptide Start 415 Stop 434
T2 peptide: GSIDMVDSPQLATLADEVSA

T3: Tau peptide Start 411 Stop 430
T3 peptide: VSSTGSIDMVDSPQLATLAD

T4: Tau peptide Start 419 Stop 438
T4 peptide: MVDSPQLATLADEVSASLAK

T5: Tau peptide Start 417 Stop 436
T5 peptide: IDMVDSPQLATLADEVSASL

T6: Tau peptide Start 413 Stop 432
T6 peptide: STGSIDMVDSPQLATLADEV

T7: Tau peptide Start 421 Stop 440
T7 peptide: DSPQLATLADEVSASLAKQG

T8: Tau peptide Start 422 Stop 441
T8 peptide: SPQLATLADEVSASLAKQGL


What was measured:
[1] = target: T1, Tau peptide Start 3 Stop 22; test: Pepscan ELISA on an array of linear 20-mer Tau 441 peptides; parameters: peptide ELISA signal (no name or unit printed): unit not given here
Source text: (§1) An amino functionalized polypropylene support was obtained by grafting with a proprietary hydrophilic polymer formulation, followed by reaction with t-butyloxycarbonyl-hexamethylenediamine (BocHMDA) using dicyclohexylcarbodiimide (DCC) with N-hydroxybenzotriazole (HOBt), and subsequent cleavage of the Boc-groups using trifluoroacetic acid (TFA). Standard Fmoc-peptide synthesis was used to synthesize peptides on the amino-functionalized solid support by custom modified JANUS liquid handling stations (Perkin Elmer). Synthesis of structural mimics was done using Pepscan's proprietary Chemically Linked Peptides on Scaffolds (CLIPS) technology. CLIPS technology allows to structure peptides into single loops, double loops, triple loops, sheet-like folds, helix-like folds, and combinations thereof. CLIPS templates are coupled to cysteine residues. The side-chains of multiple cysteines in the peptides are coupled to one or two CLIPS templates. For example, a 0.5 mM solution of the P2 CLIPS (2,6-bis(bromomethyl)pyridine) is dissolved in ammonium bicarbonate (20 mM, pH 7.8)/acetonitrile (1:3 (v/v)). This solution is added onto the peptide arrays. The CLIPS template will bind to side-chains of two cysteines as present in the solid-phase bound peptides of the peptide-arrays (455 wells plate with 3 μl wells). The peptide arrays are gently shaken in the solution for 30 to 60 minutes while completely covered in solution. Finally, the peptide arrays are washed extensively with excess of H₂O and sonicated in disrupt-buffer containing 1% SDS/0.1% beta-mercaptoethanol in PBS (pH 7.2) at 70° C. for 30 minutes, followed by sonication in H₂O for another 45 minutes. The T3 CLIPS carrying peptides were made in a similar way but now with three cysteines.
(§2) The binding of antibodies (recombinantly expressed as IgG2a) to each of the synthesized peptides was tested in a pepscan-based ELISA. The peptide arrays were incubated with primary antibody solution (overnight at 4° C.). After washing, the peptide arrays were incubated with a 1/1000 dilution of an appropriate antibody peroxidase conjugate (SBA; Table 4) for one hour at 25° C. After washing, the peroxidase substrate 2,2′-azino-di-3-ethylbenzthiazoline sulfonate (ABTS) and 20 μl/ml of 3 percent H₂O₂ were added. After one hour, the color development was measured.

[2] = target: T2, Tau peptide Start 415 Stop 434; test: as above; parameters: peptide ELISA signal (no name or unit printed): unit not given here
Source text: as §1, §2

[3] = target: T3, Tau peptide Start 411 Stop 430; test: as above; parameters: peptide ELISA signal (no name or unit printed): unit not given here
Source text: as §1, §2

[4] = target: T4, Tau peptide Start 419 Stop 438; test: as above; parameters: peptide ELISA signal (no name or unit printed): unit not given here
Source text: as §1, §2

[5] = target: T5, Tau peptide Start 417 Stop 436; test: as above; parameters: peptide ELISA signal (no name or unit printed): unit not given here
Source text: as §1, §2

[6] = target: Tau peptide Start 1 Stop 20 (Synthetic linear peptide immobilised on a Pepscan array; the attachment to the array cannot be carried by the letters.); test: as above; parameters: peptide ELISA signal (no name or unit printed): unit not given here
Source text: as §1, §2

[7] = target: T6, Tau peptide Start 413 Stop 432; test: as above; parameters: peptide ELISA signal (no name or unit printed): unit not given here
Source text: as §1, §2

[8] = target: T7, Tau peptide Start 421 Stop 440; test: as above; parameters: peptide ELISA signal (no name or unit printed): unit not given here
Source text: as §1, §2

[9] = target: T8, Tau peptide Start 422 Stop 441; test: as above; parameters: peptide ELISA signal (no name or unit printed): unit not given here
Source text: as §1, §2

[10] = target: T9, PHF-tau (paired helical filament tau; sarcosyl insoluble prep from human AD brain) (human, UniProt P10636-8 2-441, limits assumed, hyper-phosphorylated (sites not specified)); test: SPR (ProteOn), mAb on PHF-tau, bivalent analyte fit; apparent affinity (avidity)
T9 construct: also called aggregated PHF Tau; aggregated tau (AD brain)
Experimental: (§3) The interactions with PHF-tau and recombinant tau were assessed by SPR on ProteOn (Bio-Rad, Hercules, CA) instrument for PT66, PT69, hTau60 anti-tau antibodies and their corresponding Fab fragments. Because of the multimeric/aggregated nature of PHF-tau with multiple copies of the epitope, and the bivalent nature of IgGs, mAb affinity was influenced by avidity in this study format. Fab affinity provides information on the intrinsic affinity of the antibody. Representative sensorgrams of mAbs and their Fab fragments binding to PHF Tau are shown in FIG. 3 and a summary is represented in Table 1 below. HT7 was used as a reference.

[11] = target: T10, recombinant full-length tau 2N4R (control tau) (human, UniProt P10636 2-758); test: direct ELISA on full-length 2N4R Tau coated at 1 ng/mL
T10 construct: also called recombinant WT (2N4R) tau; Rec; Tau
Experimental: (§4) Binding to recombinant WT (2N4R) tau was analyzed by ELISA. Full-length Tau protein (1 ng/mL or 10 ng/mL) was directly coated to the plate and incubated with different concentrations of either recombinantly- or hybridoma-produced PT/66, PT/69 or hTau/60 antibodies (FIG. 1). […] No substantial difference was observed between binding profiles of recombinant and hybridoma produced antibodies.

[12] = target: T10, recombinant full-length tau 2N4R …; test: direct ELISA on full-length 2N4R Tau coated at 10 ng/mL
Experimental: as §4

[13] = target: T10, recombinant full-length tau 2N4R …; test: SPR (ProteOn), Fab on recombinant full-length tau, 1:1 Langmuir fit
Experimental: as §3

[14] = target: T9, PHF-tau (paired helical filament tau; …); test: SPR (ProteOn), Fab on PHF-tau, 1:1 Langmuir fit
Experimental: as §3

Tau peptide Start 1 Stop 20 (Synthetic linear peptide immobilised on a Pepscan array; the attachment to the array cannot be carried by the letters.), sequence (peptide, as listed by the source limits assumed): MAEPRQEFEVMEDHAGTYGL

peptide ELISA signal (no name or unit printed) [1]	binding result [2]	peptide ELISA signal (no name or unit printed) [2]	peptide ELISA signal (no name or unit printed) [3]	binding result [4]	peptide ELISA signal (no name or unit printed) [4]	binding result [5]	peptide ELISA signal (no name or unit printed) [5]	peptide ELISA signal (no name or unit printed) [6]	binding result [7]	peptide ELISA signal (no name or unit printed) [7]	peptide ELISA signal (no name or unit printed) [8]	peptide ELISA signal (no name or unit printed) [9]	Kd [10]	EC50 (read off the curve) [11]	EC50 (read off the curve) [12]	Kd [13]	Kd [14]	Binder
44	no binding	24	36	no binding	45	no binding	48	48	no binding	46	2910	2920	69 pM	~0.01 µg/mL	~0.01 µg/mL			hTau60 monoclonal antibody (recombinant, mouse IgG2a/kappa) (antibody, V domains shown, also called hTau60 (PT1B469)) VH: EVQLQQSGPELVKPGTSVKISCKVFGYTFTDYYMNWVKQSHGKSLEWIGDINPDNGETTYNQKFKGKATLTVDKSSSTAYMELRSLTSEDSAVYYCAKGATFVYWGQGTLVTVSA VL: DVVMTQTPLSLPVSLGDQASISCISSQSLVHSTGTTFLHWFLQKPGQSPKLLIYKVSNRFSGVPDRFSGSGSGTDFTLKISRVEAEDLGFYFCSQSTYFPLTFGSGTKLEIKR
																26 pM	427 pM	hTau60 Fab (chimeric: mouse variable domains, human IgG1/kappa constant domains, His tag) (Fab, V domains shown, Fab expressed in HEK293F cells; also called hTau60 Fab fragment; not shown: His tag at the C-terminus of the heavy chain; human kappa light chain constant domain) VH: EVQLQQSGPELVKPGTSVKISCKVFGYTFTDYYMNWVKQSHGKSLEWIGDINPDNGETTYNQKFKGKATLTVDKSSSTAYMELRSLTSEDSAVYYCAKGATFVYWGQGTLVTVSA VL: DVVMTQTPLSLPVSLGDQASISCISSQSLVHSTGTTFLHWFLQKPGQSPKLLIYKVSNRFSGVPDRFSGSGSGTDFTLKISRVEAEDLGFYFCSQSTYFPLTFGSGTKLEIK
														~0.005 µg/mL	~0.005 µg/mL			hTau/60 hybridoma (antibody, V domains shown, parent of m1; also called hybridoma-produced hTau/60) VH: EVQLQQSGPELVKPGTSVKISCKVFGYTFTDYYMNWVKQSHGKSLEWIGDINPDNGETTYNQKFKGKATLTVDKSSSTAYMELRSLTSEDSAVYYCAKGATFVYWGQGTLVTVSA VL: DVVMTQTPLSLPVSLGDQASISCISSQSLVHSTGTTFLHWFLQKPGQSPKLLIYKVSNRFSGVPDRFSGSGSGTDFTLKISRVEAEDLGFYFCSQSTYFPLTFGSGTKLEIK
														~0.01 µg/mL	~0.005 µg/mL			PT/66 hybridoma (antibody, V domains shown, parent of m2; also called hybridoma-produced PT/66) VH: QVQLQQPGAELVKPGASVKMSCKASGYTFTSYWITWVKQRPGQGLEWIGDIHPGRGSTKSNEKFKSKATLTVDTSSSTAYMQFSSLTSEDSAVYYCARRWGFDYWGQGTTLTVSS VL: DIVITQDELSNPVTSGESVSISCRSSKSLLYKDGKTYLNWFLQRPGQSPQLLIYLMSTRASGVSDRFSGSGSGTDFTLEISRVKAEDVGVYYCQQLVDYPLTFGAGTKLELK

More lines, now with the values behind:

Binder	peptide ELISA signal (no name or unit printed) [1]	binding result [2]	peptide ELISA signal (no name or unit printed) [2]	peptide ELISA signal (no name or unit printed) [3]	binding result [4]	peptide ELISA signal (no name or unit printed) [4]	binding result [5]	peptide ELISA signal (no name or unit printed) [5]	peptide ELISA signal (no name or unit printed) [6]	binding result [7]	peptide ELISA signal (no name or unit printed) [7]	peptide ELISA signal (no name or unit printed) [8]	peptide ELISA signal (no name or unit printed) [9]	Kd [10]	EC50 (read off the curve) [11]	EC50 (read off the curve) [12]	Kd [13]	Kd [14]
PT66 monoclonal antibody (recombinant, mouse IgG2a/kappa) (antibody, V domains shown, also called PT66 (PT1B545)) VH: QVQLQQPGAELVKPGASVKMSCKASGYTFTSYWITWVKQRPGQGLEWIGDIHPGRGSTKSNEKFKSKATLTVDTSSSTAYMQFSSLTSEDSAVYYCARRWGFDYWGQGTTLTVSS VL: DIVITQDELSNPVTSGESVSISCRSSKSLLYKDGKTYLNWFLQRPGQSPQLLIYLMSTRASGVSDRFSGSGSGTDFTLEISRVKAEDVGVYYCQQLVDYPLTFGAGTKLELKR	45		2930	50		2930		2940	40		2520	2930	2950	56 pM	~0.04 µg/mL	~0.01 µg/mL		
PT66 Fab (chimeric: mouse variable domains, human IgG1/kappa constant domains, His tag) (Fab, V domains shown, Fab expressed in HEK293F cells; also called PT66 Fab fragment; not shown: His tag at the C-terminus of the heavy chain; human kappa light chain constant domain) VH: QVQLQQPGAELVKPGASVKMSCKASGYTFTSYWITWVKQRPGQGLEWIGDIHPGRGSTKSNEKFKSKATLTVDTSSSTAYMQFSSLTSEDSAVYYCARRWGFDYWGQGTTLTVSS VL: DIVITQDELSNPVTSGESVSISCRSSKSLLYKDGKTYLNWFLQRPGQSPQLLIYLMSTRASGVSDRFSGSGSGTDFTLEISRVKAEDVGVYYCQQLVDYPLTFGAGTKLELK																	40 pM	514 pM
PT69 monoclonal antibody (recombinant, mouse IgG2a/kappa) (antibody, V domains shown, also called PT69/PT87; PT69 (PT1B548)) VH: QVQLQQPGAELVKPGASVKMSCKASGYTFTNYWITWVKQRPGQGLEWIGDIYPGSGRTKSNEKFKNKATLTADTSSSTAYMQLSSLTSEDSAVYYCTRRWGLDYWGQGTTLTVSS VL: DIVITQDELSNPVTSGESVSISCRSNKSLLYKDGKTYLNWFLQRPGQSPQLLIYLMSTRASGVSDRFSGSGSGTDFTLEISRVKAEDVGVYYCQQLVDYPLTFGAGTKLELKR	38		2830	43		2920		2920	30		1380	2930	2930					
